# Measurements taken from US20050222009A1, “Dual phase - PNA conjugates for the delivery of PNA through the blood brain barrier” (priority 2003, published 2005).
# Test system: PC12 cells
# Assay: Measurement of cellular toxicity by neutral red uptake
# Assay type: cell-based, rat
# Details: 48 hours incubation (FIG. 2); compared with control PNA
# Protocol: As an in vitro models for neurons and for BBB we used the human neuroblastoma NMB cell line the rat catecholaminergic cell line PC12 and the mice brain-derived endothelial cell line bEND. NMB cells were adapted to grow in Dulbecco modified Eagle medium (DMEM) with 10% Hyclone calf serum (Simantov et al., 1996). PC12 cells were grown in DMEM, 10% horse serum and 5% calf serum. bEND3 cells were grown in DMEM, %10 calf serum supplemented with 2 mM glutamine. Cells were maintained in a 10% CO2 humidified incubator at 37° C. Cells were routinely sub-cultured every four to five days. When cells (5×10^3) were plated in 96 wells, dishes were pretreated with poly-L-ornithine.
# PC12 cells were incubated with PNA or peptide-PNA conjugates for 48 hours. At the end of the incubation, cell morphology was examined by light microscopy. Medium was replaced with medium containing neutral red. Neutral-red uptake was determined by spectrophotometer and was used as an index for cellular toxicity (FIG. 2).
substance,measurement,value
CHK6HC-TTT GCT CTT ACT CAT-HAIYPRH [KBP11],neutral red uptake to PC12 cells (index for cellular toxicity),no significant difference
CHK6HC-TTT GCT CTT ACT CAT-THRPPMWSPVWP [KBP10],neutral red uptake to PC12 cells (index for cellular toxicity),no significant difference
